Measurements: the supplement of paper PMC9112550, “Optimization of the antimicrobial peptide Bac7 by deep mutational scanning” (BMC Biology, 2022)

What follows are sequences tested on Escherichia coli TOP10 (assay: shrunken log2 fold change of peptide-encoding DNA abundance (4.5 h post-induction vs induction); higher = less antimicrobial activity (less host growth inhibition)). Details: time post-induction: 4.5 h; library: site-saturation at positions 5, 18, 19, 20.
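Note: peptides expressed intracellularly from a pBAD plasmid library in pooled LB shake-flask culture, induced with 0.3% L-arabinose, DNA abundance read by NGS, three biological replicates, DESeq2 with apeglm shrinkage.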

First: RRIRMRPPRLPRPRPRPAKKPRP
Second: RRIRERPPRLPRPRPRPKIMPRP
The “shrunken log2 fold change” value of the first is higher: 0.209 for the first, -1.24 for the second.

RRIRERPPRLPRPRPRPEWKPRP and RRIRQRPPRLPRPRPRPTMQPRP are within 0.2 log units of each other in “shrunken log2 fold change” value: 0.0685 for the first, 0.0998 for the second.

First: RRIRKRPPRLPRPRPRPEERPRP
Second: RRIRWRPPRLPRPRPRPQRPPRP
The “shrunken log2 fold change” value of the first is higher: 1.23 for the first, -0.00892 for the second.

First: RRIRYRPPRLPRPRPRPTRAPRP
Second: RRIRARPPRLPRPRPRPPFWPRP
The “shrunken log2 fold change” value of the first is lower: 0.144 for the first, 0.914 for the second.

Compared with RRIRPRPPRLPRPRPRPRAKPRP, RRIRARPPRLPRPRPRPIDMPRP is lower in “shrunken log2 fold change” value: 0.692 for the first, -0.0819 for the second.

RRIRARPPRLPRPRPRPMNLPRP and RRIRLRPPRLPRPRPRPIQGPRP are within 0.2 log units of each other in “shrunken log2 fold change” value: -0.313 for the first, -0.226 for the second.

Going from RRIRMRPPRLPRPRPRPPQYPRP to RRIRCRPPRLPRPRPRPAELPRP, the “shrunken log2 fold change” value falls from 0.465 to 0.0853.

Compared with RRIRVRPPRLPRPRPRPLTMPRP, RRIRERPPRLPRPRPRPYWTPRP is higher in “shrunken log2 fold change” value: -0.319 for the first, -0.0954 for the second.

Compared with RRIRTRPPRLPRPRPRPISQPRP, RRIRARPPRLPRPRPRPVIAPRP is higher in “shrunken log2 fold change” value: -0.0474 for the first, 0.161 for the second.

First: RRIRDRPPRLPRPRPRPNLRPRP
Second: RRIRYRPPRLPRPRPRPSVPPRP
The “shrunken log2 fold change” value of the first is higher: -0.162 for the first, -0.497 for the second.

First: RRIRSRPPRLPRPRPRPHWHPRP
Second: RRIRPRPPRLPRPRPRPKDQPRP
The “shrunken log2 fold change” value of the first is lower: -0.124 for the first, 0.111 for the second.

RRIRGRPPRLPRPRPRPAEWPRP and RRIRKRPPRLPRPRPRPVGMPRP are within 0.2 log units of each other in “shrunken log2 fold change” value: 0.542 for the first, 0.554 for the second.

Compared with RRIRERPPRLPRPRPRPYIYPRP, RRIRMRPPRLPRPRPRPCSAPRP is higher in “shrunken log2 fold change” value: -0.254 for the first, 1.24 for the second.

Going from RRIRCRPPRLPRPRPRPMTNPRP to RRIRYRPPRLPRPRPRPREMPRP, the “shrunken log2 fold change” value rises from -0.434 to -0.126.

Compared with RRIRIRPPRLPRPRPRPWVNPRP, RRIRKRPPRLPRPRPRPVWAPRP is higher in “shrunken log2 fold change” value: -0.722 for the first, 0.316 for the second.

First: RRIRGRPPRLPRPRPRPNSHPRP
Second: RRIRPRPPRLPRPRPRPEFPPRP
The “shrunken log2 fold change” value of the first is higher: 0.285 for the first, -0.00714 for the second.

First: RRIRDRPPRLPRPRPRPDGRPRP
Second: RRIRCRPPRLPRPRPRPCYVPRP
The “shrunken log2 fold change” value of the first is higher: 0.655 for the first, -1.08 for the second.

Compared with RRIRFRPPRLPRPRPRPVVSPRP, RRIRIRPPRLPRPRPRPDTMPRP is lower in “shrunken log2 fold change” value: 0.0235 for the first, -0.272 for the second.

RRIRWRPPRLPRPRPRPWQDPRP and RRIRCRPPRLPRPRPRPKPFPRP are within 0.2 log units of each other in “shrunken log2 fold change” value: -0.00695 for the first, -0.0386 for the second.

Going from RRIRDRPPRLPRPRPRPPMMPRP to RRIRYRPPRLPRPRPRPNWKPRP, the “shrunken log2 fold change” value rises from -0.0737 to 0.138.

Compared with RRIRERPPRLPRPRPRPTFAPRP, RRIRNRPPRLPRPRPRPSLNPRP is lower in “shrunken log2 fold change” value: -0.0119 for the first, -0.335 for the second.

Compared with RRIRERPPRLPRPRPRPWVPPRP, RRIRDRPPRLPRPRPRPSTNPRP is lower in “shrunken log2 fold change” value: 0.0883 for the first, -0.16 for the second.

First: RRIRYRPPRLPRPRPRPRIMPRP
Second: RRIRERPPRLPRPRPRPVNHPRP
The “shrunken log2 fold change” value of the first is lower: -1.06 for the first, -0.229 for the second.

RRIRFRPPRLPRPRPRPQVNPRP and RRIRKRPPRLPRPRPRPHQAPRP are within 0.2 log units of each other in “shrunken log2 fold change” value: -0.0623 for the first, -0.137 for the second.

Compared with RRIRFRPPRLPRPRPRPGPMPRP, RRIRCRPPRLPRPRPRPMCGPRP is lower in “shrunken log2 fold change” value: 0.104 for the first, -0.0984 for the second.

First: RRIRVRPPRLPRPRPRPKMPPRP
Second: RRIRYRPPRLPRPRPRPRDKPRP
The “shrunken log2 fold change” value of the first is higher: -0.0804 for the first, -0.667 for the second.

Going from RRIRVRPPRLPRPRPRPMGLPRP to RRIRSRPPRLPRPRPRPLLWPRP, the “shrunken log2 fold change” value rises from -0.00681 to 0.236.

RRIRIRPPRLPRPRPRPAYNPRP and RRIRVRPPRLPRPRPRPLMPPRP are within 0.2 log units of each other in “shrunken log2 fold change” value: -0.111 for the first, 0.0146 for the second.

RRIRQRPPRLPRPRPRPHHRPRP and RRIRARPPRLPRPRPRPWHLPRP are within 0.2 log units of each other in “shrunken log2 fold change” value: 0.104 for the first, -0.0312 for the second.

Going from RRIRLRPPRLPRPRPRPAWQPRP to RRIRQRPPRLPRPRPRPINVPRP, the “shrunken log2 fold change” value falls from 0.202 to -0.0732.

Going from RRIRARPPRLPRPRPRPGEPPRP to RRIRCRPPRLPRPRPRPLSSPRP, the “shrunken log2 fold change” value falls from 0.601 to -0.173.

RRIRCRPPRLPRPRPRPCVGPRP and RRIRDRPPRLPRPRPRPAYEPRP are within 0.2 log units of each other in “shrunken log2 fold change” value: -0.0691 for the first, -0.0214 for the second.

Compared with RRIRNRPPRLPRPRPRPTEGPRP, RRIRARPPRLPRPRPRPMMCPRP is higher in “shrunken log2 fold change” value: 0.0116 for the first, 0.544 for the second.

Compared with RRIRGRPPRLPRPRPRPNNYPRP, RRIRFRPPRLPRPRPRPLYQPRP is lower in “shrunken log2 fold change” value: 0.0781 for the first, -0.374 for the second.

RRIRSRPPRLPRPRPRPCWKPRP and RRIRFRPPRLPRPRPRPMECPRP are within 0.2 log units of each other in “shrunken log2 fold change” value: -0.169 for the first, -0.0638 for the second.

Going from RRIRRRPPRLPRPRPRPKFLPRP to RRIRRRPPRLPRPRPRPYVHPRP, the “shrunken log2 fold change” value falls from 0.133 to -0.356.

RRIRTRPPRLPRPRPRPKERPRP and RRIRKRPPRLPRPRPRPFLSPRP are within 0.2 log units of each other in “shrunken log2 fold change” value: -0.0679 for the first, -0.0256 for the second.

First: RRIRIRPPRLPRPRPRPEMNPRP
Second: RRIRLRPPRLPRPRPRPSNMPRP
The “shrunken log2 fold change” value of the first is higher: -0.0353 for the first, -0.406 for the second.

First: RRIRCRPPRLPRPRPRPAKTPRP
Second: RRIRIRPPRLPRPRPRPFMWPRP
The “shrunken log2 fold change” value of the first is higher: -0.0664 for the first, -0.792 for the second.

RRIRERPPRLPRPRPRPCKAPRP and RRIRWRPPRLPRPRPRPKNPPRP are within 0.2 log units of each other in “shrunken log2 fold change” value: -0.0137 for the first, 0.152 for the second.

RRIRVRPPRLPRPRPRPTHIPRP and RRIRERPPRLPRPRPRPEWAPRP are within 0.2 log units of each other in “shrunken log2 fold change” value: 0.268 for the first, 0.103 for the second.

RRIRLRPPRLPRPRPRPQGTPRP and RRIRFRPPRLPRPRPRPMLFPRP are within 0.2 log units of each other in “shrunken log2 fold change” value: 0.0413 for the first, -0.0947 for the second.

RRIRERPPRLPRPRPRPMQQPRP and RRIRHRPPRLPRPRPRPEVKPRP are within 0.2 log units of each other in “shrunken log2 fold change” value: -0.0321 for the first, 0.104 for the second.

First: RRIRKRPPRLPRPRPRPARHPRP
Second: RRIRLRPPRLPRPRPRPQWYPRP
The “shrunken log2 fold change” value of the first is higher: 1.9 for the first, -0.426 for the second.

Going from RRIRHRPPRLPRPRPRPVQGPRP to RRIRPRPPRLPRPRPRPSTIPRP, the “shrunken log2 fold change” value falls from 0.207 to -0.552.

RRIRHRPPRLPRPRPRPAADPRP and RRIRKRPPRLPRPRPRPVAIPRP are within 0.2 log units of each other in “shrunken log2 fold change” value: 0.274 for the first, 0.265 for the second.

First: RRIRRRPPRLPRPRPRPMQHPRP
Second: RRIRWRPPRLPRPRPRPTAEPRP
The “shrunken log2 fold change” value of the first is lower: 0.566 for the first, 1.76 for the second.

Compared with RRIRFRPPRLPRPRPRPIKFPRP, RRIRSRPPRLPRPRPRPFCTPRP is higher in “shrunken log2 fold change” value: -0.587 for the first, -0.375 for the second.

Compared with RRIRARPPRLPRPRPRPGKIPRP, RRIRFRPPRLPRPRPRPRNNPRP is lower in “shrunken log2 fold change” value: 0.0623 for the first, -0.381 for the second.

Compared with RRIRERPPRLPRPRPRPKELPRP, RRIRDRPPRLPRPRPRPKWVPRP is higher in “shrunken log2 fold change” value: 0.00511 for the first, 0.538 for the second.

RRIRPRPPRLPRPRPRPLANPRP and RRIRPRPPRLPRPRPRPVVMPRP are within 0.2 log units of each other in “shrunken log2 fold change” value: -0.0209 for the first, -0.174 for the second.

Compared with RRIRHRPPRLPRPRPRPLLQPRP, RRIRCRPPRLPRPRPRPRIHPRP is lower in “shrunken log2 fold change” value: 0.112 for the first, -0.226 for the second.

RRIRCRPPRLPRPRPRPILKPRP and RRIRTRPPRLPRPRPRPDQAPRP are within 0.2 log units of each other in “shrunken log2 fold change” value: -0.263 for the first, -0.0986 for the second.

First: RRIRVRPPRLPRPRPRPRWYPRP
Second: RRIRARPPRLPRPRPRPVCMPRP
The “shrunken log2 fold change” value of the first is lower: -0.232 for the first, 0.226 for the second.

In the case of RRIRDRPPRLPRPRPRPVKHPRP, the “shrunken log2 fold change” value is reported as -0.0698.
